# Assay results: the supplement of paper PMC6757056
# ± gives the standard deviation of the averaged measurements.
# B1: library; a variant is named by its letters at N, in order (parent)
# chain: GCUGUCACCGGUGCUUGGUACGUUAUAUUCAGCCGGUCUGAUGAGUCUNNNNNNAGACGAAACAGC
# Key:
# (6R,S)-folinic acid [1] = variants of: B1; assay: FACS-Seq fitted mean relative fluorescence mCherry/BFP without ligand (log10 relative fluorescence); HEK293T overexpressing SLC46A1; higher = higher reporter protein expression; conditions: without (6R,S)-folinic acid; ligand present: no
# In short: (§1)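 Fluorescence comes from a normal fit to bin counts, normalized against controls. HEK293T libraries lentivirally given a ribozyme-switch mCherry reporter and an EF1α-BFP marker were enriched, incubated 48 h with or without ligand, and sorted by mCherry/BFP into 6 bins. Bin genomic DNA was PCR-amplified, barcoded and sequenced on MiSeq. The log10(mCherry/BFP) mean was scaled to five spiked-in control ribozymes.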
# (6R,S)-folinic acid [2] = variants of: B1; assay: normalized RNA/DNA level without ligand (relative to sTRSVctl = 100) (log10 (% of sTRSVctl)); HEK293T overexpressing SLC46A1; higher = less ribozyme self-cleavage, higher mRNA level; conditions: without (6R,S)-folinic acid; ligand present: no
# In short: (§2)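 Ribozyme switch library plasmids linked to reporters were introduced into HEK293T cells at 4 µg per 6-well well, with ligand, if any, added 1 h before. Total RNA was extracted with EDTA 72 h later, reverse-transcribed, amplified, barcoded and sequenced. RNA level was computed from RNA over DNA reads relative to a spiked-in non-cleaving sequence or the top sequences, then scaled and log-transformed. The top set was 25 sequences, values were ×100 and log10, and the cutoff was ≥100 DNA reads.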
# (6R,S)-folinic acid [3] = variants of: B1; assay: FACS-Seq fitted mean relative fluorescence mCherry/BFP with ligand (log10 relative fluorescence); HEK293T overexpressing SLC46A1; ligand concentration (+) FACS-Seq: 6 mM; higher = higher reporter protein expression; conditions: with (6R,S)-folinic acid; ligand present: yes
# In short: as §1
# (6R,S)-folinic acid [4] = variants of: B1; assay: normalized RNA/DNA level with ligand (relative to sTRSVctl = 100) (log10 (% of sTRSVctl)); HEK293T overexpressing SLC46A1; ligand concentration (+) RNA-Seq: 6 mM; higher = less ribozyme self-cleavage, higher mRNA level; conditions: with (6R,S)-folinic acid; ligand present: yes
# In short: as §2
Variant,"FACS-Seq fitted mean (log10) ((6R,S)-folinic acid [1])","normalized RNA/DNA level without ligand (log10) ((6R,S)-folinic acid [2])","FACS-Seq fitted mean (log10) ((6R,S)-folinic acid [3])","normalized RNA/DNA level with ligand (log10) ((6R,S)-folinic acid [4])"
UUCACU,-0.112 ± 0.034,2.059 ± 0.0067,-0.112 ± 0.28,2.041 ± 0.02
GUCAGG,0.338 ± 0.065,1.938 ± 0.015,0.29 ± 0.076,1.974 ± 0.018
UUCAGG,0.449 ± 0.081,1.894 ± 0.0032,0.666 ± 0.2,1.98 ± 0.057
AUCAGU,-0.132 ± 0.056,1.97 ± 0.021,-0.238 ± 0.53,1.996 ± 0.017
GUCAUG,0.406 ± 0.047,2.004 ± 0.01,0.165 ± 0.087,2.03 ± 0.027
UUCAUG,0.548 ± 0.083,1.86 ± 0.014,0.703 ± 0.25,1.97 ± 0.067
UUCCAA,0.112 ± 0.15,1.992 ± 0.0026,0.213 ± 0.13,2 ± 0.028
GUCCAG,0.335 ± 0.07,1.966 ± 0.011,0.103 ± 0.16,1.975 ± 0.018
GUCCCC,-0.921 ± 0.05,2.022 ± 0.014,-1.94 ± 0.26,1.995 ± 0.0047
GUCCGA,0.497 ± 0.025,2.017 ± 0.0041,0.383 ± 0.061,2.007 ± 0.0092
UUCCGA,-0.0446 ± 0.086,1.997 ± 0.002,-0.101 ± 0.13,1.999 ± 0.018
CUCCGC,0.443 ± 0.04,2.042 ± 0.0057,0.294 ± 0.047,1.985 ± 0.019
CUCCGG,0.136 ± 0.061,2.044 ± 0.0029,-0.307 ± 0.12,2.05 ± 0.028
GUCCGG,-0.054 ± 0.18,2.042 ± 0.011,-0.0351 ± 0.41,2.05 ± 0.063
UUCCUG,0.284 ± 0.092,1.96 ± 0.027,0.493 ± 0.079,2.03 ± 0.024
AUCGAC,0.0463 ± 0.0065,2.041 ± 0.0079,0.0476 ± 0.024,2.01 ± 0.03
GUCGAC,0.479 ± 0.017,1.965 ± 0.0058,0.62 ± 0.022,2.025 ± 0.0097
AUCGAG,0.076 ± 0.01,1.813 ± 0.017,0.217 ± 0.22,2 ± 0.032

Variant,"FACS-Seq fitted mean (log10) ((6R,S)-folinic acid [1])","normalized RNA/DNA level without ligand (log10) ((6R,S)-folinic acid [2])","FACS-Seq fitted mean (log10) ((6R,S)-folinic acid [3])","normalized RNA/DNA level with ligand (log10) ((6R,S)-folinic acid [4])"
CUCGAG,0.167 ± 0.042,1.96 ± 0.02,0.115 ± 0.2,1.977 ± 0.012
UUCGAG,0.119 ± 0.084,1.77 ± 0.033,0.699 ± 0.054,1.97 ± 0.055
GUCGAU,0.179 ± 0.051,1.986 ± 0.015,0.225 ± 0.17,2.02 ± 0.026
CUCGCA,0.235 ± 0.086,2.06 ± 0.013,0.416 ± 0.3,2.062 ± 0.011
GUCGCA,0.512 ± 0.053,2.03 ± 0.021,0.745 ± 0.29,2.01 ± 0.041
GUCGCC,0.306 ± 0.12,2.015 ± 0.012,0.25 ± 0.17,2.02 ± 0.052
AUCGCU,0.152 ± 0.036,2.026 ± 0.01,0.222 ± 0.45,2.013 ± 0.015
CUCGCU,0.424 ± 0.087,2.06 ± 0.044,0.349 ± 0.091,2.02 ± 0.038
AUCGGA,0.397 ± 0.17,1.99 ± 0.0013,0.345 ± 0.48,2 ± 0.039
UUCGGC,0.0747 ± 0.019,2.043 ± 0.013,-0.314 ± 0.0053,2.04 ± 0.054
GUCGUA,0.666 ± 0.21,2.0187 ± 0.00087,0.497 ± 0.34,2.01 ± 0.025
UUCUAA,0.64 ± 0.015,2.014 ± 0.011,0.66 ± 0.067,2.01 ± 0.026
UUCUAG,0.502 ± 0.03,1.879 ± 0.0029,0.872 ± 0.074,1.99 ± 0.044
GUCUAU,0.0107 ± 0.49,2 ± 0.014,0.473 ± 0.4,2.02 ± 0.026
AUCUCG,0.399 ± 0.02,1.976 ± 0.012,0.435 ± 0.35,2.04 ± 0.035
GUCUCG,0.378 ± 0.032,1.997 ± 0.0037,0.197 ± 0.26,2.003 ± 0.013
GUCUGC,0.325 ± 0.12,2.025 ± 0.0038,0.295 ± 0.085,2.07 ± 0.053
UUCUGC,0.411 ± 0.14,2.049 ± 0.02,0.336 ± 0.038,2.04 ± 0.052
